Data as given in patent publication US6096520A, “Brain glycogen phosphorylase cancer antigen” (Ludwig Institute for Cancer Research, priority 1998, dated 2000).

Test system: antigen recognized by CTL 246/76
Test: TNF release from CTL 246/76 provoked by HOB cells transfected with cDNA fragment and HLA-A2
Assay type: cell-based, human
Settings: fragment cotransfected with HLA-A2 into HOB cells
Procedure: The transfection of HOB cells was made in duplicate wells. Briefly, samples of HOB cells were seeded, at 15,000 cells/well into tissue culture flat bottom microwells, in DMEM supplemented with 10% fetal calf serum. The cells were incubated overnight at 37° C., medium was removed and then replaced by 100 μl/well total volume of DMEM medium containing 20% Nu-Serum (Collaborative Research, Bedford, Mass.), 300 μg/ml DEAE-dextran, and 200 μM chloroquine, plus 100 ng of the LB373-MEL cDNA library cloned in pcDNAI/Amp and 50 ng of HLA-A2 cloned in pcDNAI/Amp. Following four hours of incubation at 37° C., the medium was removed, and replaced by 50 μl of PBS containing 10% dimethyl sulfoxide (DMSO). This medium was removed after two minutes and replaced by 200 μl of DMEM supplemented with 10% FCS.
Following this change in medium, HOB cells were incubated for 48 hours at 37° C. The transfectants then were screened with CTL 246/76. After first removing the medium, 2000 CTL 246/76 cells were added to each well in 100 μl of medium containing 25 U/ml IL-2. The amount of TNF present in the supernatant was then measured by testing its cytotoxicity for WEHI 164.13 cells. Most pools gave a TNF concentration below 5 pg/ml. cDNAs from pools which gave higher concentrations in both of the duplicate wells were cloned in bacteria. Their plasmid DNA was extracted and transfected into HOB cells with HLA-A2. The transfectants were screened with CTL 246/76. One cDNA clone gave a high TNF production by CTL 246/76. The cDNA was sequenced, compared with DNA sequence databases and determined to encode brain glycogen phosphorylase.
Fragments of the brain glycogen phosphorylase cDNA were prepared by exonuclease III digestion from the 3' end of the cDNA according to art standard procedures, were cloned into an expression vector and transfected into HOB cells with HLA-A2 as described above. As a positive control, the brain glycogen phosphorylase cDNA was cotransfected with HLA-A2 into HOB cells. These transfectants were used to provoke release of TNF from CTL 246/76 cells.
Shorter fragments were generated by PCR. […]

Molecule	confers expression of the antigen recognized by CTL 246/76
SEQ ID NO:1: shortest exonuclease III fragment of brain glycogen phosphorylase nucleic acid, ending 100 bp after the start codon (nucleic acid, chemistry not fully specified, shortest exonuclease III fragment of brain glycogen phosphorylase nucleic acid, ending 100 bp after the start codon) DNA: ATGGGCGAACCGCTGACGGACAGCGAGAAGCGGAAGCAGATCAGCGTGCGCGGCCTGGCGGGGCTAGGCGACGTGGCCGAGGTGCGGAAGAGCTTCAACCGGCACTTGCA	able to confer expression of the antigen
SEQ ID NO:2: fragment of brain glycogen phosphorylase nucleic acid ending at position 161 (nucleic acid, chemistry not fully specified) DNA: ATGGGCGAACCGCTGACGGACAGCGAGAAGCGGAAGCAGATCAGCGTGCGCGGCCTGGCGGGGCTAGGCGACGTGGCCGAGGTGCGGAAGAGCTTCAACCGG	did confer expression of the antigen
SEQ ID NO:3: fragment of brain glycogen phosphorylase nucleic acid ending at position 140 (nucleic acid, chemistry not fully specified) DNA: ATGGGCGAACCGCTGACGGACAGCGAGAAGCGGAAGCAGATCAGCGTGCGCGGCCTGGCGGGGCTAGGCGACGTGGCCGAG	did not confer expression of the antigen
